{"source": "paper PMC2708785", "about": "(Biochemistry, 2009)", "proteins": {"B1": {"name": "2-methyl-3-hydroxypyridine-5-carboxylic acid oxygenase (MHPCO) from Mesorhizobium loti MAFF303099, with N-terminal 6xHis tag (enzyme, UniProt Q988D3 1-379, looked up)", "chain": "MANVNKTPGKTRRAEVAGGGFAGLTAAIALKQNGWDVRLHEKSSELRAFGAGIYLWHNGLRVLEGLGALDDVLQGSHTPPTYETWMHNKSVSKETFNGLPWRIMTRSHLHDALVNRARALGVDISVNSEAVAADPVGRLTLQTGEVLEADLIVGADGVGSKVRDSIGFKQDRWVSKDGLIRLIVPRMKKELGHGEWDNTIDMWNFWPRVQRILYSPCNENELYLGLMAPAADPRGSSVPIDLEVWVEMFPFLEPCLIEAAKLKTARYDKYETTKLDSWTRGKVALVGDAAHAMCPALAQGAGCAMVNAFSLSQDLEEGSSVEDALVAWETRIRPITDRCQALSGDYAANRSLSKGNMFTPAALEAARYDPLRRVYSWPQ", "modifications": "selenomethionine in place of methionine (SeMet MHPCO)"}}, "key": {"crystal structure": {"biological_target": "the molecule itself", "experiment": "crystal structure"}, "AUC": {"biological_target": "the molecule itself", "experiment": "AUC"}}, "data": [{"protein": "B1", "values": [{"measurement": "stoichiometry N", "setting": "crystal structure", "value": 2}, {"measurement": "stoichiometry N", "setting": "AUC", "value": 4}]}]}
